The record followed here is paper PMC6140332.

The data set has as its target T1, ERG (33-479) R367K (UniProt P11308 33-479, R367K).
T1 sequence: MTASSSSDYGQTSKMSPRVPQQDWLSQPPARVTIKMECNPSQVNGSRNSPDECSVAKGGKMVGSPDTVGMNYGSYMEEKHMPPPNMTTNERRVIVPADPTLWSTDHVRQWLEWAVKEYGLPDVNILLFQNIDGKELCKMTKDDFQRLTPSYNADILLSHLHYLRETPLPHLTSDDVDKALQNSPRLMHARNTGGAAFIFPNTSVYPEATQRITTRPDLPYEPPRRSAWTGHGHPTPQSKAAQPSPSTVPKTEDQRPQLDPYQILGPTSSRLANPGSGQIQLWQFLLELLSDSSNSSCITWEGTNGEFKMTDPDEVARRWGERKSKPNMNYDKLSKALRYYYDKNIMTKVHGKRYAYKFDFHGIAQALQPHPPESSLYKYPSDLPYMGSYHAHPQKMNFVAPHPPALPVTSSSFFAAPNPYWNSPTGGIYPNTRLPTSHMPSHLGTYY
Description: EMSA.

B1: IRD800-Py (polyomavirus enhancer probe) (dsDNA)
DNA 1: GATCTTTAAGCAGGAAGTGACTAACTGACCGCAGGTGGATC
DNA 2: GATCCACCTGCGGTCAGTTAGTCACTTCCTGCTTAAAGATC
Regarding B1, the binding result was “no binding”.
